According to publication doi:10.1101/2020.06.12.148387 (bioRxiv, 2020):

What was measured:
[1] = molecular target: T1, S1 subunit of SARS-CoV-1 Spike (SARS-CoV-1 (SARS-CoV), strain , UniProt P59594); test: ELISA
T1 construct: source: bought: Sino Biological

[2] = molecular target: biotinylated SARS-CoV-2 RBD (SARS-CoV-2, UniProt P0DTC2); test: cell-based ACE2 blocking assay (plate, streptavidin-HRP)
SARS-CoV-2 RBD-Fc = SARS-CoV-2 RBD-Fc (SARS-CoV-2, strain  …, UniProt P0DTC2); test: SPR; details: both partners purified
[3] = molecular target: deglycosylated SARS-CoV-2 RBD (SARS-CoV-2, UniProt P0DTC2); test: crystal structure; details: both partners purified

B1: EY6A IgG (antibody, V domains shown)
VH: EVQLVESGGGVVQPGRSLRLSCAASAFTFSSYDMHWVRQAPGKGLEWVAVISYDGSNKYYADSVKGRFTISRDNSKNTLYLQMNSLRAEDTAVYYCAKDGGKLWVYYFDYWGQGTLVTVSS
VL: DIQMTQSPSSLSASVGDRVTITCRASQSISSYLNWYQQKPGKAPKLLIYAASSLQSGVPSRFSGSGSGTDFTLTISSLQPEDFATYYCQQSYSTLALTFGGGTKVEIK
notes: also called antibody EY6A; EY6A mAb; copies: 2 + 2
binding result [1]: binds
IC50 [2]: 54 nM

B2: EY6A Fab (digested from IgG with papain) (Fab, V domains shown)
VH: B1 VH
VL: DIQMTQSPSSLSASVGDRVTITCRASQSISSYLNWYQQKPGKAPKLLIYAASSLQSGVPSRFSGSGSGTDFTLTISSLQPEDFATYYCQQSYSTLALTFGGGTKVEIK
notes: also called Fab-EY6A; source: digested from ExpiCHO-made IgG with papain (Pierce Fab Preparation Kit)
Kd (SARS-CoV-2 RBD-Fc): 2 nM

B3: nanobody (Nb) used as crystallisation chaperone (VHH)
VHH: QVQLVESGGGLMQAGGSLRLSCAVSGRTFSTAAMGWFRQAPGKEREFVAAIRWSGGSAYYADSVKGRFTISRDKAKNTVYLQMNSLKYEDTAVYYCAQTHYVSYLLSDYATWPYDYWGQGTQVTVSS
binding result [3]: binds
